Laboratory results reported in article PMC6780499, “Characterization, Recombinant Production and Structure-Function Analysis of NvCI, A Picomolar Metallocarboxypeptidase Inhibitor from the Marine Snail Nerita versicolor” (Marine Drugs, 2019).
No end group written: not given here.

Experiments:
Assay type in all cases: biochemical
[1] = biological target: T1, hCPZ (Homo sapiens, UniProt Q66K79); assay: Ki determination, tight-binding inhibition of metallocarboxypeptidase; details: NI: No inhibitory activity detected for the [I]0 range from 1 nM to 1 mM
T1 sequence (Q66K79 19-652): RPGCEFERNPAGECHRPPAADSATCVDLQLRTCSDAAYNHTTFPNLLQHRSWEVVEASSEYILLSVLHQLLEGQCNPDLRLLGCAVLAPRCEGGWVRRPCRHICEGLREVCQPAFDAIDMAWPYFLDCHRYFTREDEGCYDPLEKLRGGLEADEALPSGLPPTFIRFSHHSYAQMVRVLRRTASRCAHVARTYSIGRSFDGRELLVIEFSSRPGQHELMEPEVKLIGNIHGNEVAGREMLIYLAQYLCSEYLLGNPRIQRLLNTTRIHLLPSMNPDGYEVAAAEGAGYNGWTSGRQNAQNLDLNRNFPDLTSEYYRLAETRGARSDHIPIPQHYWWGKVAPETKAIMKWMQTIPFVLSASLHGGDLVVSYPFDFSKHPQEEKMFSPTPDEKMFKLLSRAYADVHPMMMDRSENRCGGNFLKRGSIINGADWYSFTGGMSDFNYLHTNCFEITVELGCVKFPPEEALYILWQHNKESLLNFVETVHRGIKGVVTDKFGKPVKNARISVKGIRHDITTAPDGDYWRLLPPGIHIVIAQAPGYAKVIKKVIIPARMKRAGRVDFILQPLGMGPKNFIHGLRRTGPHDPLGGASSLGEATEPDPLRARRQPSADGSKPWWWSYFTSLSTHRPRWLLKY
Procedure: (§1) Inhibitory activities against CPA- and CPB-type forms (bovine and human variants of CPA1, CPA2, CPA4, CPB1, and TAFI) were assayed for all extracts, subject to the experimental conditions that enzyme (E), substrate (S) and inhibitor (I) concentrations as well as the [I]/[E] ratio and preincubation time followed the requirements for tight-binding inhibitor assays. Similar approaches were followed to measure the activities of proteases of different catalytic types, like pepsin, papain, trypsin and subtilisin [45, 46, 47, 48]. All assays were performed in triplicate at 25 °C in a multiplexed manner. For 96-well assays an iEMS spectrophotometer reader/dispenser FM (Labsystems, Finland) was used with a final reaction volume of 250 μL. For cuvette assays, a Cary 400 Bio spectrophotometer (Varian Inc., Palo Alto, CA, USA) spectrophotometer was used with a final reaction volume of 1 ml. The reactions were followed at 5 s intervals for 5 min and recorded as initial velocities. In the protease inhibition assays, mixtures of activity buffer, biological sample and enzyme were preincubated at 25 °C for 10min, before substrate addition. The assay conditions were as follows: for CPA-like enzymes, 7.0nM CPA, 0.1mM AAFP substrate in 20mM Tris-HCl pH 7.5, 500mMNaCl, 1% v/v dimethyl sulfoxide (DMSO), 0.05% w/v BRIJ-35 was used. For CPB-like enzymes, CPB 3.0nM CPB, 0.1mM AAFA substrate and activity buffer of 20 mM Tris-HCl pH [50].
(§2) The Ki values of natural and recombinant NvCI against bCPA1, hCPA1, hCPA2, rat CPA3, hCPA4, hCPB1, bTAFI, hTAFI, hCPD and hCPZ were determined by measuring the enzymatic residual activity (Vi/V0 = a) at different inhibitor concentrations and using a fixed enzyme and substrate concentrations as described above, where vi and v0 are the fraction of enzymatic activity in the presence and absence of inhibitor, respectively, in terms of initial velocities. The determination of Ki values was carried out on equilibrium conditions ([E0]/Ki ≤ 10), using a previously determined preincubation time of 15 min, required to establish enzyme-inhibitor equilibrium. Working temperature was 37 °C. The best estimates of Ki values were obtained by fitting the experimental data to the equation for tight-binding inhibitors by non-linear regression using the GraphPad Prisma 5 software (GraphPad Software, Inc., San Diego, CA, USA) at p < 0.05. The real Ki values against each of these A/B-type MCPs were calculated according to the equation described by Morrison and Copeland [19, 20].

[2] = biological target: T2, hCPA2 (Homo sapiens, UniProt P48052); assay: as above; details: tight-binding equation fit, equilibrium conditions; substrate AAFP 0.1mM, 20mM Tris-HCl pH 7.5, 500mM NaCl; preincubation 15 min; 37 °C; means (n = 3) ± SD
T2 sequence (P48052 115-419): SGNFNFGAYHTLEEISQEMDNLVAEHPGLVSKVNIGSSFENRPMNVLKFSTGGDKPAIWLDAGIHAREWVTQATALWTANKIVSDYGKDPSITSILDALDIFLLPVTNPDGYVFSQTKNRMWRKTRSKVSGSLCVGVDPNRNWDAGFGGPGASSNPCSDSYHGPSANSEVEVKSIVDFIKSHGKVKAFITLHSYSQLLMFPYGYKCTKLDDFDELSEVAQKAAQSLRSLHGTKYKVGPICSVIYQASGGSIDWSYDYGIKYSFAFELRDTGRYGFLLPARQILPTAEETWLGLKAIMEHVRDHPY
Procedure: as §1, §2

[3] = biological target: T3, hCPA1 (Homo sapiens, UniProt P15085); assay: as above; details: tight-binding equation fit, equilibrium conditions; substrate AAFP 0.1mM, 20mM Tris-HCl pH 7.5, 500mM NaCl; preincubation 15 min; 37 °C; means (n = 3) ± SD
T3 sequence (P15085 111-419): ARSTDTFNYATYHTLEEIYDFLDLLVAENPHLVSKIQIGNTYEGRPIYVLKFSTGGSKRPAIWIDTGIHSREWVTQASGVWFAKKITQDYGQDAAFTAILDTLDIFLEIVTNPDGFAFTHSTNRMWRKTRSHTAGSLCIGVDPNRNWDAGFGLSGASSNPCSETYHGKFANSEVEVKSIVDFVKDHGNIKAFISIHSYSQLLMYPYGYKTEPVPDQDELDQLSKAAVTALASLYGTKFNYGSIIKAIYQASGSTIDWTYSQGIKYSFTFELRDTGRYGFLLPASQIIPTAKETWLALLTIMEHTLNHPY
Procedure: as §1, §2

[4] = system: bCPA and hCPA1; assay: Competitive (double) titration with the tight-binding inhibitor TCI; details: competing assays with the similar tight-binding inhibitor TCI
[5] = system: different MCPs; assay: Apparent binding kinetics, effect of preincubation time; details: preincubation over different periods of time, titration and equilibrium conditions
Procedure: as §2, with “The determination of Ki values was carried out on equilibrium conditions ([E0]/Ki ≤ 10), using a previously determined preincubation time of 15 min, required to establish enzyme-inhibitor equilibrium.” left out

[6] = system: CPA1 forms; assay: as above; details: preincubation over different periods of time, titration and equilibrium conditions
Procedure: as §2, with “The determination of Ki values was carried out on equilibrium conditions ([E0]/Ki ≤ 10), using a previously determined preincubation time of 15 min, required to establish enzyme-inhibitor equilibrium.” left out

- Ki [1]: > 1000 µM
- Ki [2]: 0.00651 ± 6.86e-05 µM
- Ki [3]: 1.8 ± 0.2 pM
- inhibitory capability / maximum potential activity by competitive titration [4]: 50.4%
- binding behaviour [5]: fast binding
- binding behaviour [6]: slow binding behavior
Substance: NvCI: 53-residue, three-disulphide proteinaceous metallocarboxypeptidase inhibitor from the marine snail Nerita versicolor; major isoform; UniProt P86912 (FHVPDDRPCINPGRCPLVPDATCTFVCKAADNDFGYECQHVWTFEGQRVGCYA; disulfide (positions not given here); also: three disulphides, pairing not given here; UniProt P86912 1-53, looked up)
